Results on 16 sequences are retold here after the DeepSol protein solubility set.

The nature of the data set: soluble on expression in E. coli; label from the status in PepcDB or PDB records.
For the sequence “REGKASTVNPGNGNVPDAEDLQALFDVIYEVMPEPTVNVDGPLQAHVTNLDSSSFLGRIGLIRVHSGSLKKGQQVAWIHYDEEGNQHTKTAKIAELLRTVGVTRVPADEVVAGDIAAISGIDSIMIGDTLADLEHPVALPRITVDEPAISMTIGVNTSPLAGRGGGDKLTARVVKARLEQELIGNVSLRVLPTERPDAWEVQGRGEMALSVLVETMRREGFELTVGKPQVVTQTVDGKLFEPYEHMVIDIPSEYQGNVTQLMAARKGQMLSMDNISDEWVRMEYKVPARGLISFRTMFMTETRGTGIANSYSEGLDEWAGEIKGRATGSLVADRSGQITAYALQQLADRGNFFVEPGTEAYEGMVVGANNRDEDMDVNITREKKLTNMRSATADATVTLAKARSLSLDEAMEFCGQDECVEVTPDVLRVRKVILNATERGRARAREKARNK”, the “soluble on expression in E. coli” value is listed as “not soluble”.
Regarding “MATIHVDGKEYEVNGADNLLEACLSLGLDIPYFCWHPALGSVGACRQCAVKQYQNAEDTRGRLVMSCMTPASDGTFISIDDEEAKQFRESVVEWLMTNHPHDCPVCEEGGNCHLQDMTVMTGHSFRRYRFTKRTHRNQDLGPFISHEMNRCIACYRCVRYYKDYADGTDLGVYGAHDNVYFGRPEDGTLESEFSGNLVEICPTGVFTDKTHSERYNRKWDMQFAPSICQQCSIGCNISPGERYGELRRIENRYNGTVNHYFLCDRGRFGYGYVNLKDRPRQPVQRRGDDFITLNAEQAMQGAADILRQSKKVIGIGSPRASVESNFALRELVGEENFYTGIAHGEQERLQLALKVLREGGIYTPALREIESYDAVLVLGEDVTQTGARVALAVRQAVKGKAREMAAAQKVADWQIAAILNIGQRAKHPLFVTNVDDTRLDDIAAWTYRAPVEDQARLGFAIAHALDNSAPAVDGIEPELQNKIDVIVQALAGAKKPLIISGTNAGSIEVIQAAANVAKALKGRGADVGITMIARSVNSMGLGIMGGGSLEEALTELETGRADAVVVLENDLHRYASATRVNAALAKAPLVMVVDHQRTAIMENAHLVLSSASFAESDGTVINNEGRAQRFFQVYDPAYYDSKTVMLESWRWLHSLHSTLLSREVDWTQLDHVIDAVVAKIPELAGIKDAAPDATFRIRGQKLAREPHRYSGRTAMRANISVHEPRQPQDIDTMFTFSMEGNNQPTAHRSQVPFAWAPGWNSPQAWNKFQDEVGGKLRFGDPGVRLFETSENGLDYFTSVPARFQPQDGKWRIAPYYHLFGSDELSQRAPVFQSRMPQPYIKLNPADAAKLGVNAGTRVSFSYDGNTVTLPVEIAEGLTAGQVGLPMGMSGIAPVLAGAHLEDLKEAQQ”, the “soluble on expression in E. coli” value was “not soluble”.
Consider “MRRKMERIALIEDDKDLAFLVKLNLEREGFEVEHFERATPFFKFISENSVDLILIDIMLPDLDGFRIANFLKSRADLKEIPVIFITAKGEEEDKLKGFELGADDYITKPFSMKELIARVRAVLKRYKKVSESKVLKYEGVELDTERQKLFVDGREVYLTPAEFKILKTLMENFGRPVSRSSLVEKLWDYERETTERAIDVHVKHIRDKLGKYKGLIKTVRGVGYKFEN”, for which the “soluble on expression in E. coli” value was “soluble”.
For “MSLKAPVDFEQEVAPLLSQRCVSCHSPNIKKGELSLAGPEDLLANGYVVPGDPAGSYLLEVVSPAGDDPAAMPKLGDALAEPEVALLRRWIEQGAVWPDGFVIREASKADRSWWSLQPLADIHPPEVAAAPAAWRQNPIDRFVWAKLSEANLKPNSPADRRTLIRRATFDLTGLPPTAEEIDTFVASDSPDAYPQLIDRMLASPRYGERWGRHWLDVIRFGESRGFERNQIITNLWPFRDYVIRSINEDKPFDQFIREHLAGDVIAPNTPQVEVGSAFLVAGPYDDVGNEGHHHHHH” the value was “soluble”.
The result for “MGSDKIHHHHHHMKVTLKTLTPLHIGSGEKYPPCNLVVLKEEENKKTAVRLITRKFLEVLRKHPEIKQNISENISKPLSFKEVENVEDGVFYEVSLYSDFSSGKKNPEIPEVVHHPDGSVYVPGSSLKGAVRLALTWHVLRNNRNLLEEFRRNVQKDLQNHKRAFYQTNEFLNGLFRFAPKEINTDYFRFLRVSDSQTLRTQLVVHDVGIFYVARPNTHPRTFPLEFVPINRDFVFDVRFVKEEYDYFLTHVRKRYGVELPGSIEEIFSIVNEFYSEVFKFERERFKKAKENFEKLDTSKIEERFQKIEKVLQSKKYVLIHIGYGGGLMANSLFILLDEETRKQVRNIIKYHKDDEAPLTRRYLVQSENNSYRVISPIGWCALWLEDSQST” reads “not soluble”; that for “MSLAEPRYKADIGGGSLKLPESRIIAGLLLEGVTEDQWRHAIEVENVLQRRSPGTAKRQSSLMRNRLETMGPELWQMVRDGSTQVAIQAVFAAAIKHSTLLGDFLDLVVRDQFRMFRPDLPRKMWDQYLEQCRNRDPLMPVWQDSTANKLADCVYRILVEVGYITDSKTYRLKSVRISGEVMSYLRENNEQYVIRCIQVSIEGHHHHHH”, “soluble”; that for “MGSDKIHHHHHHMVHSTPTTFAGSKSARPRVAIAGFQHETNTFAPFGAPFDDFVRGGGWPAMTTGAAILDVFPPIEIPIGGFISAAKDTYELIPLVWAAAEPTSFVSDDAFERIAGMICDGIARAGPLDAIYLDLHGAMVVESYQDGEGELLRRVREIVGRDIPIMISLDFHANVTEAMVELSDGITIFRTYPHIDLADTGGRAFSLLEQRIRRGRPFIKAFRKTPFLIPLPAQCTDLEPCMSLYAGLQERVKGPVLNVDVALGFPLADIRECGPAVVAYGIDEVAVTAAADMQLSDMLEAEGRFHMSLLDVKEAVEHAARNGRKGSLIVLADVQDNPGCGGTSDTIGLLKGMVEGGLRNGVLGLLWDPETAEAAHTAGLGAELDVRLGGRYGYDSEPYLARVRVEALSDGVFKANGPCLGGVQVDLGRMARLLILNPGSSVQVVVSSVRFQCLDQDLLRAVGVEPRDQSVVAVKSAVHFRADFAPIAEEILTVESPGAHWCRNDILDYKNLRDGVRRMPISLATQPSEVKIAERRH”, “not soluble”.
The result for “MLRIAVDCMGGDYAPLEIVRGCILAAKELGYKIYLVGDKEQIIPILEKAKEHNNSLLEVVHAPDKVEMHEPPSNVLKKKNSSLYVAGMLVRKGEADGLVSAGNTGAVLAVGKFIVGAEEEVERPSIGVALPNPKGKTVLIDVGANVDCKPKHLVQFAVIGHTYAEEILGIKNPRVGILSIGEEEGKGNELVKETYPLLKATKLNFKGNAEGRDIYAGTFDVIVCDGFVGNVILKASESLGLAVVQMIKEEIKRSILAKLGALLLMPALNRFKKKADFAEYGGIPLLGAKKPVIITHGRANAKAIKNAVRVAGEFLNTDFNKKLVYNLKTLIPEGVKV” reads “soluble”; that for “VKIDNKTFQVNGRVLLDDLTEEFGIEFDDSEDIDTIGGWLQSRNTNLQKDDYVDTTYDRWVVSEIDNHQIIWVILNYEFNEARPTIGQSDEDEKSE”, “not soluble”.
With “MGSDKIHHHHHHMIIMIPFKSMRDQAGLNRQHIFDLARLPPDLLAPLDLGQHERQLILLGHAGRLLWERVQKHATDPVHPIDSYTIGVVEQWAALALPHTRIRFVYPRGLPANRHVGLQRLGTLAGWHHPSPFMVGIDARWGSWFAYRAAIIVDSELPASPVEDHGHPCVDCTAKPCIGTCPASALDSGTMDMNACTASGSLKPRPARTAAWRDRPAL”, the “soluble on expression in E. coli” value is listed as “not soluble”.
The result for “GAMGGMHLVGVLDIAKDILKANKRLADKNRKLLNKHGVVAFDFMGAIGSGKTLLIEKLIDNLKDKYKIACIAGDVIAKFDAERMEKHGAKVVPLNTGKECHLDAHLVGHALEDLNLDEIDLLFIENVGNLICPADFDLGTHKRIVVISTTEGDDTIEKHPGIMKTADLIVINKIDLADAVGADIKKMENDAKRINPDAEVVLLSLKTMEGFDKVLEFIEKSVKEVK” reads “soluble”; that for “MKRSSTVLAALLALLLVATNDAARHRKYRQTYQDIDSDDDDTSDVQITVFPSEKEVRDGRDVSFECRARTSDNSVYPTVRWARVGGPLPSSAHDSGGRLTINPVQLSDAGTYICVSDYNGNTVEARATLSVVSYGPQEVSNGLRQAGQCMADEKACGNNECVKNDYVCDGEPDCRDRSDEANCPAISRTCEPNEFKCNNNKCVQKMWLCDGDDDCGDNSDELNCNAKPSSSDCKPTEFQCHDRRQCVPSSFHCDGTNDCHDGSDEVGCVQPTVVDPPQTNLQVPRGTTFSLTCKAVAVPEPYINWRLNWGPVCEPPRCLQTSEGGYGTLTIHDAQPVDQGAYTCEAINVKGRVLATPDCIVRVVDDPRPQPPQPPTAPPQRASCDTRGAVTPYPNNYGTCECKSQVTGPNCDQCKPGAFHLSEKSPEGCLKCFCFGVSNDCRSSGHYRTKDRLMFAGDAEGVTISDIEERTIDRNTPFSFFKTGYLTFDGTTDGVAKYWRLPQRFLGDKVTAYGGKMEFEIEFSGSGHHSSEPMVVLKGNQNILVHRVRNQEHVLRSDSPVRITVETYETNYEQLNGAAATREDLLMVLADLDAFLIRATHVAHQTSTSLGDVSWEIAVDRYTPDGLALEVEQCVCPPGYLGTSCEDCAPGYERSGYGPYLGTCVPIQPRHQQCGPGAVAPTAPAQGQCQCKASVIGPNCDRCAPNSFGLAPTNPQGCIPCFCSGVTQQCSASSYRRTSVSIDYARGDRDQLELTTSDSRQPYSPQTRAELSGQAIEFRSFEEARGQTLYWKLPEKFLGDKVTSYGGTLEYTFKFSGNGNSDQSADVILRGNDIALQYKHREPFYADRENKVQIKIIETSWQRVDGQQATREHLLMTLADLDTLLIKSTYNDDCTDSQLLSANLEFAEPYGQGLTAAEVEQCICPPGYVGTSCEDCAPGYSRTGGGLYLGLCEKCECNGHASQCDKEYGYCLDCQHNTEGDQCERCKPGFVGDARRGTPNDCQPEATRAPCHCNNHSPRGCDSFGRCLLCEHNTEGTHCERCKKGYYGDATKGSPYDCTPCPCPGASDCYLDNEGQVACRICPAGLQGRLCNECAPGYTRSNKPAGRVCEPIGQVTNEDITFVQKPHEGDFARNSPSQNSSGQRRHRRRRIRVRSRFYHH”, “not soluble”; that for “SELSQLLNEIRANYEKILTRNQIETVLSTRIQLEEDISKKMDKDEEALKAAQAELKEARRQWHHLQVEIESLHAVERGLENSLHASEQHYQMQLQDLETVIEGLEKELQEVRRGIEKQLQEHEMLLNTKMRLEQEIATYRHLLEKEEIRYYGCIQGGKKDKKPTTSRVGFVLPSAIINEISFTTKVPQKYENENVETVTKQAILNGSIVKESTEAHGTIQTEKVDEVIKEWEGSFFKDNPRLRKKSVSLRFDLHLAATDEGCLETKQDNLPDIEVRLIMRRSCSIPSIKPPSTAN”, “soluble”.
Turning to “MSDAPTVVAYLGPAGTFTEEALYKFADAGVFGDGEIEQLPAKSPQEAVDAVRHGTAQFAVVAIENFVDGPVTPTFDALDQGSNVQIIAEEELDIAFSIMVRPGTSLADVKTLATHPVGYQQVKNWMATTIPDAMYLSASSNGAGAQMVAEGTADAAAAPSRAAELFGLERLVDDVADVRGARTRFVAVQAQAA”, the “soluble on expression in E. coli” value is on record as “not soluble”.
For “MLKQSLATLLLCSTLSPLAVVLPTLAGPGDGGMGWGAKVENLNLTPEQRQNLQAIRQRYQSQIEETRTQLRTAKDELRRLMASNASDEQIRAKHAQVQQLQQKLATLRFESMLATRKILTPEQRQALAERMQNRQGQRRLERLEHHHHHH” the value was “soluble”; for “MNNQSQVKVGPPLWLLAELTYDCPLHCPYCSNPTELGDTKDELNTEQWLDVLTQARAMGAVQLGFSGGEPLLRKDLEQMVKHSRELGFYTNLITSGIGLTEKRIAKLKVAGLDHIQISFQGADPEMNDIIAGRGNAFEQKFKMAQSVKAQGYPMVLNFVISKQNISQVEDIMRLSCQLNADYVELATAQYYGWAYDNRDHLLPSQQQLIDAEKIVNEFRDKQQGKGPQFIFVTPDYFEVRPKACMNGWGSTFLTIAPDGSALPCHSAKMLPLKFPNVKDKSISDIWQQDFSFNRFRGDSWMPQPCQSCDEKEKDFGGCRCQAFMMTGDMDKTDPVCSKSPDHHLIQEAIERAKHPKNPLLERVNKRSIKDADIVQIKL”, “not soluble”.
